B1: DVL3 (parent)
chain: HPDPAPFCADNPSELPPPMERTGG
B2: GNB5 (parent)
chain: DINSVRYYPSGDAFASGSDDATCR

Variants of: B1
Assay: protein stability index of a GFP-peptide fusion (GPS, HEK-293T) (PSI 1-6); higher = more stable
Settings: c terminus: a fixed tail appended
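Further: lentivirally expressed fusions sorted by FACS into six bins by GFP to DsRed ratio, PSI derived from sequencing read proportions per bin multiplied by bin number.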

First: HPDPAPFCADNRSELPPPMERTGG
Second: HPDPAPFCADNESELPPPMERTGG
The protein stability index of the first is lower: 2.95 for the first, 3.19 for the second.

First: HPDPAPFCADNKSELPPPMERTGG
Second: HPDPAPFCADNLSELPPPMERTGG
The protein stability index of the first is lower: 2.88 for the first, 3.24 for the second.

Going from HPDPAPFCGDNPSELPPPMERTGG to HPVPAPFCADNPSELPPPMERTGG, the protein stability index rises from 3.27 to 3.39.

Going from HPMPAPFCADNPSELPPPMERTGG to HPWPAPFCADNPSELPPPMERTGG, the protein stability index falls from 3.42 to 2.81.

Going from HPRPAPFCADNPSELPPPMERTGG to HPDPAPFCADNPSGLPPPMERTGG, the protein stability index falls from 4.13 to 2.65.

Going from HPDPAPFCADNPSELCPPMERTGG to HPDPAPFCADNPSELEPPMERTGG, the protein stability index rises from 2.38 to 3.09.

Compared with HPDPAPFCADNPSELGPPMERTGG, HPDPAPFCADNPSELAPPMERTGG is lower in protein stability index: 3.1 for the first, 3.04 for the second.

HPDPAPFCADNPSELDPPMERTGG and HPDPAPFCADNPSELVPPMERTGG are the same in protein stability index: 2.9 for the first, 2.9 for the second.

First: HPDPAPFCADNPSELMPPMERTGG
Second: HPDPAPFCADNPSELQPPMERTGG
The protein stability index of the first is lower: 3.02 for the first, 3.59 for the second.

Compared with HPDPAPFCADNPSELLPPMERTGG, HPDPAPFCADNPSELIPPMERTGG is higher in protein stability index: 2.42 for the first, 2.7 for the second.

Going from HPDPAPFCADNPSELWPPMERTGG to HPDPAPFCADNPSELSPPMERTGG, the protein stability index rises from 2.17 to 3.19.

Compared with HPDPAPFCADNPSELKPPMERTGG, HPDPAPFCADNPSELRPPMERTGG is higher in protein stability index: 2.19 for the first, 2.28 for the second.

In the case of HPDPAPFCADNPSELHPPMERTGG, the protein stability index is reported as 2.58.

Variants of: B2
Assay: as above
Settings: c terminus: a fixed tail appended

Compared with DINSVRYYPSGDAFASGSDDYTCR, DINSVRYYPSGDAFASGSDDRTCR is higher in protein stability index: 3.19 for the first, 3.63 for the second.

Compared with DINSVRYYPSGDAFASGSDDTTCR, DINSVRYYPSGDAFASGSDDSTCR is higher in protein stability index: 3.79 for the first, 3.91 for the second.

Going from DINSVRYYPSGDAFASGSDDQTCR to DINSVRYYPSGDAFASGSDDWTCR, the protein stability index falls from 3.98 to 2.79.

DINSVRYYPSGDAFASGSDDNTCR and DINSVRYYPSGDAFASGSDDPTCR are the same in protein stability index: 4.16 for the first, 4.16 for the second.

First: DINSVRYYPSGDAFASGSDDMTCR
Second: DINSVRYYPSGDAFASGSDDVTCR
The protein stability index of the first is lower: 3.44 for the first, 3.72 for the second.

First: DINSVRYYPSGDAFASGSDDLTCR
Second: DINSVRYYPSGDAFASGSDDKTCR
The protein stability index of the first is higher: 3.82 for the first, 3.8 for the second.

First: DINSVRYYPSGDAFASGSDDAPCR
Second: DINSVRYYPSGDAFASGSDDASCR
The protein stability index of the first is lower: 3.56 for the first, 3.91 for the second.

Going from DINSVRYYPSGDAFASGSDDAWCR to DINSVRYYPSGDAFASGSDDAECR, the protein stability index rises from 3 to 4.86.

Going from DINSVRYYPSGDAFASGSDDARCR to DINSVRYYPSGDAFASGSDDAFCR, the protein stability index falls from 3.57 to 3.42.

Going from DINSVRYYPSGDAFASGSDDAGCR to DINSVRYYPSGDAFASGSDDAVCR, the protein stability index falls from 4.05 to 3.8.

First: DINSVRYYPSGDAFASGSDDAKCR
Second: DINSVRYYPSGDAFASGSDDANCR
The protein stability index of the first is higher: 4.07 for the first, 4.01 for the second.

Compared with DINSVRYYPSGDAFASGSDDAQCR, DINSVRYYPSGDAFASGSDDAHCR is lower in protein stability index: 4.15 for the first, 4.06 for the second.

Going from DINSVRYYPSGDAFASGSDDAACR to DINSVRYYPSGDAFASGSDDADCR, the protein stability index falls from 3.92 to 3.76.

Compared with DINSVRYYPSGDAFASGSDDAICR, DINSVRYYPSGDAFASGSDDALCR is lower in protein stability index: 3.84 for the first, 3.72 for the second.

First: DINSVRYYPSGDAFASGSDDAYCR
Second: DINSVRYYPSGDAFASGSDDACCR
The protein stability index of the first is lower: 2.94 for the first, 3.65 for the second.

Going from DINSVRYYPSGDAFASGSDDAMCR to DINSVRYYPSGDAFASGSDDATVR, the protein stability index rises from 3.47 to 3.87.

First: DINSVRYYPSGDAFASGSDDATMR
Second: DINSVRYYPSGDAFASGSDDATWR
The protein stability index of the first is higher: 3.62 for the first, 3.14 for the second.

First: DINSVRYYPSGDAFASGSDDATHR
Second: DINSVRYYPSGDAFASGSDDATFR
The protein stability index of the first is higher: 4.3 for the first, 3.95 for the second.

Compared with DINSVRYYPSGDAFASGSDDATGR, DINSVRYYPSGDAFASGSDDATQR is lower in protein stability index: 4.39 for the first, 4.13 for the second.

Compared with DINSVRYYPSGDAFASGSDDATIR, DINSVRYYPSGDAFASGSDDATLR is lower in protein stability index: 4 for the first, 3.95 for the second.

Going from DINSVRYYPSGDAFASGSDDATSR to DINSVRYYPSGDAFASGSDDATER, the protein stability index rises from 4.05 to 4.74.

First: DINSVRYYPSGDAFASGSDDATKR
Second: DINSVRYYPSGDAFASGSDDATNR
The protein stability index of the first is higher: 4.41 for the first, 3.95 for the second.

First: DINSVRYYPSGDAFASGSDDATTR
Second: DINSVRYYPSGDAFASGSDDATDR
The protein stability index of the first is higher: 4.55 for the first, 4.48 for the second.

First: DINSVRYYPSGDAFASGSDDATAR
Second: DINSVRYYPSGDAFASGSDDATYR
The protein stability index of the first is higher: 4.53 for the first, 3.9 for the second.

First: DINSVRYYPSGDAFASGSDDATPR
Second: DINSVRYYPSGDAFASGSDDATRR
The protein stability index of the first is higher: 4.14 for the first, 3.92 for the second.

Going from DINSVRYYPSGDAFASGSDDATCQ to DINSVRYYPSGDAFASGSDDATCC, the protein stability index falls from 4.68 to 4.06.

Compared with DINSVRYYPSGDAFASGSDDATCG, DINSVRYYPSGDAFASGSDDATCH is lower in protein stability index: 4.59 for the first, 4.29 for the second.

Compared with DINSVRYYPSGDAFASGSDDATCA, DINSVRYYPSGDAFASGSDDATCF is lower in protein stability index: 4.03 for the first, 3.51 for the second.

First: DINSVRYYPSGDAFASGSDDATCW
Second: DINSVRYYPSGDAFASGSDDATCP
The protein stability index of the first is lower: 3.53 for the first, 4.3 for the second.

Going from DINSVRYYPSGDAFASGSDDATCY to DINSVRYYPSGDAFASGSDDATCI, the protein stability index falls from 3.99 to 3.77.

Compared with DINSVRYYPSGDAFASGSDDATCT, DINSVRYYPSGDAFASGSDDATCK is lower in protein stability index: 4.41 for the first, 4.19 for the second.

Going from DINSVRYYPSGDAFASGSDDATCL to DINSVRYYPSGDAFASGSDDATCV, the protein stability index rises from 3.63 to 3.92.

Going from DINSVRYYPSGDAFASGSDDATCD to DINSVRYYPSGDAFASGSDDATCE, the protein stability index rises from 4.32 to 4.71.

Going from DINSVRYYPSGDAFASGSDDATCS to DINSVRYYPSGDAFASGSDDATCM, the protein stability index falls from 4.12 to 4.03.

DINSVRYYPSGDAFASGSDDATCN gave a protein stability index of 3.59.
